Measured values from patent US10513713B2, “Modified host cells having tolerance to α-olefins” (priority 2014, dated 2019).

System: E. coli DH1 ΔacrAB
Assay: Survival test of heterologous efflux pump library in 1-hexene saturated atmosphere
Format: cell-based
Conditions: FIG. 7
Description: FIG. 7: Impact of homologous pumps on growth in presence of 1-hexene. Survival test of E. coli DH1 ΔacrAB producing either the AcrAB wild type or AcrAB homologs in a 1-hexene saturated atmosphere was performed. One dilution of cultures (10^6 cells) was spotted on agar plate. […] From left to right and from top to bottom of the picture, are culture of strains producing the pumps A. vinelandii (YP_002797425), A. vinelandii (MexF), A. vinelandii (YP_002801502), P. putida (TtgB), P. putida (NP_745594), P. putida (MexF), P. putida (NP_743067), P. aeruginosa (MexB), P. aeruginosa (NP_250708), P. aeruginosa (MexF), P. aeruginosa (NP_253065), P. fluorescens (YP_258460), P. fluorescens (YP_260376), P. fluorescens (YP_258159), P. fluorescens (YP_258289), R. metallidurans (YP_586997), R. melallidurans (YP_583276), R. metallidurans (YP_583852), M. aqueolei (YP_960752), M. aqueolei (YP_957870), P. syringae (YP_276144), P. syringae (YP_275089), P. syringae (MdtB), P. syringae (YP_273025), P. syringae (YP_273463), P. syringae (YP_272632), G. metallireducens (YP_383777), G. metallireducens (YP_384620), G. metallireducens (YP_385464), G. metallireducens (YP_384608), G. metallireducens (YP_386066), B. pertussis (NP_880739), D. vulgaris (YP_009662), S. putrefaciens (YP_001181626), A. borkumensis (YP_692684), B. borkumensis (YP_694242), P. haloplanktis (AcrB), S. halifaxensis (YP_001672433), S. halifaxensis (YP_001673423), S. halifaxensis (YP_001674385), E. coli (AcrEF), E. coli (AcrAB), E. coli (AcrD).
An existing library of heterologous efflux pumps in E. coli (Dunlop et al. 2011) was used to test if another pump may provide better tolerance to 1-hexene than the native E. coli AcrAB-TolC system. Using the agar plate-based method, this strain library constructed in a DH1 ΔacrAB background was tested and the survival compared in presence of 1-hexene relative to the strain expressing an equivalent plasmid-borne copy of the native acrAB genes.
To test the heterologous efflux pump library, the same method was used. […]

B1: Marinobacter aqueolei EPL: heterologous RND efflux pump, AcrB homolog from Marinobacter aqueolei EPL (protein, listed as Marinobacter aqueolei)
chain: MPRFFIERPIFAWVVALMLMLGGGLAVKNLAVNQFPDVAPPAIALSVNYPGASAQTVQDTVVQVIEQQLNGLDGLRYISSESNSDGSMTIIATFEQGTDPDIAQVQVQNKLQLANPLLPEEVQRQGIRVSKYKVNFFTVFALTSPDGKYTQGDLADYIVSNIQDPVARTQGVGDFLLFGSQYAMRLWLDPEKLNSYQLTPQDVINSVRAQNVQVSAGQLGGLPTAEGVQLQATVIGKQRMKTAEEFENILLKVNPDGSQVRLADVAEVNLGNENYATTGKYNGAPAAGMALRLATGANQLETAGRVKETLAELERFLPEGVEIVFPYDTTPVVSASIETVAMTLIEAVVLVFLVMFLFLQSWRATIIPTLAVPVVLLATFGVLYAFGFTVNVMTMFAMVLAIGLLVDDAIVVVENVERLMEEEGLSPKEAAKKSMDQISGALLGIGLVISAVFLPMAFFGGSTGVIYRQFSVTIISAMSFSVLVAFIFTPALCATLLKPGDQHVRKGFFGWFNRTFDRSADRYKSGVSYLIKRKGRFMGVYLLLVVAVGFLFKGLPTAFLPDEDQGVMIVMVQLPTNATGERTEAVLAEAGNYLLEEESEVVKSVMSVRGFNFAGRGQNSGILFVDLKPFADRESFAQSVFALAGRSGARFAQIKDAIVFPIVPPAILELGNATGFDLYLKDNGAIGHHALMAATNEFISRANAAPELNMVRHNGLPDEPQYQVIIDDEKARLLQVSIADINATMSAAWGSSYVNDFLHNGRVKKVYVQGKPDSRLAPEDFDKWFVRNAQGEMVPFAAFATGEWVFGSPRLQRYQGLPATQIQGAPANGYSTGDAMAALERIAADLPQGLGLEYTGLSFEEKQAGNQAMMLYLLSILVVFLCLAALYESWSIPFAVIMLVPLGVLGAVLATMARGLSNDVFFQVGMLTTMGLAAKNAILIVEFARQLYEQEGKPLLQATAEAARLRLRPIIMTSLAFIFGVLPMAIASGASSASQHAIGTAVVGGTLAATILAIFFVPLFYVFVVGLTGKRKSADD
  tolerance to 1-hexene relative to the native E. coli acrAB-expressing strain: equivalent tolerance

B2: Pseudoalteromonas haloplanktis TAC125: heterologous RND efflux pump, AcrB homolog from Pseudoalteromonas haloplanktis TAC125 (protein, listed as Pseudoalteromonas haloplanktis)
chain: MSRYFIDKPIFAWVLAIIVMLAGILAVKSLPIAQYPSIAPPAISITANYPGASAQTLEDSVTQVIEQKMKGLDGLLYMSSTSESNGSATLTLTFNADTDPDIAQVQVQNKLATATPLLPEEVQRQGVVVAKAARNFLLVLAFVSKDGSMTNIDIGDYVASNVQDIVSRVDGVGEAQLFGSQYAMRIWLDPAKLQNFKLTPNDIGAAITAQNAQVSAGQLGGMPAIAGQQLNATITAQSRLQTPEQFENILVKTNSDGSVVRLKDVARVELGGENYGVVARYNGDPAAGIGIKLASGANALDTAEGVKKALEDLKPFFPEGLDVAIPYDTTPFVSLSIEKVVHTLIEAVILVFVVMYLFLQNFRATLIPTIAVPVVLLGTFAILYTFGYSINTLTMFAMVLAIGLLVDDAIVVVENVERLMTEEKLSALDATRKSMDEIKGALVGIAMVLSAVFIPMAFFSGSTGVIYRQFSITIVSAMGLSVLVALILTPALCATLLKPSHVHDKTSFIGRFFSGFNRGFDKTNRGAQGIVGRMISQSKRYLLIYGVLVGGMVYVFSSLPTAFLPDEDQGILFNQVMLPAGSTIEQTLGVVEKVENHYLNDQAEAVGSIFTVTGFSFAGSGQNSAIGFVNLKHWDERQRDDLSVNAVAGKGMGYFSTIKEAFVFAFPPPAIVELGTANGFNMFLQDRVGLGHDELLNARNMLLGMASKSPVLAGVRPNGQEDMPELQLDIDLAKAEALGVTQTDINSTLSTAWGSRYVNDFIDRGRVKKVYMQGEADSRMVPEDLNKWYVRNNNGDMVPFAAFASSHWSYGSPRLERYNGFSAMEIQGSAAPGYSTGQAMDEMERLVKQLPNGIASEWSGISYQERSSGGQAPLLYGLSLLFVFLCLAALYESWSVPFAVMIIVPLGIFGAIMAALIGNLSNDIYLQVGLLTTIGLASKNAILIVEFAIHKMEEGLSLVDAAIAAVKLRLRPVLMTSLAFICGVVPLAIASSAGSGAQNALGISIIGGTLAASTLVVLFVPLFFVLVRKTFSSKSAVATKESE
  tolerance to 1-hexene relative to the native E. coli acrAB-expressing strain: equivalent tolerance
